Results as given in US20180282402A1 (ATYR PHARMA, published 2018).

T1: Human HARS (human, UniProt P12081 1-509, limits assumed)
T1 construct: also called human HRS; human histidyl-tRNA synthetase
T1 sequence: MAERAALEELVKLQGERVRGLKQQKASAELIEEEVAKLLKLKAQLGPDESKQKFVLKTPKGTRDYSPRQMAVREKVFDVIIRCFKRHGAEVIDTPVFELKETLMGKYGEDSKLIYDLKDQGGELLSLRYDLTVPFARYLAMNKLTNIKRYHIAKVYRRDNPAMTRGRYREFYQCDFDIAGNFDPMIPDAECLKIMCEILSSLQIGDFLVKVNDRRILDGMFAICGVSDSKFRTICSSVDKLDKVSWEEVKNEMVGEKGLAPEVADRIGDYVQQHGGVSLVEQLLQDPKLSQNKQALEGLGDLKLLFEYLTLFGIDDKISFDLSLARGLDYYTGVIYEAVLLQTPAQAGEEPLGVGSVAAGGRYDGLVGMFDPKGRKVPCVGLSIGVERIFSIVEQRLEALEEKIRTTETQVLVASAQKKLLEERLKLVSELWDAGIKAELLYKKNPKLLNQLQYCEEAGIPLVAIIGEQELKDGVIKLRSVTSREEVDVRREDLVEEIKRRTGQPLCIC


Biological target: T1, Human HARS
Experiment: SPR (ProteOn); HRS protein immobilized, antibody as analyte

Row | Kd [nM] | Binder
1 | 0.06 | AB04-160 (antibody, V domains shown, Human; IgG1m(zf) kappa) VH: QVQLVESGGGLVKPGGSLRLSCAASGFTFSDYYMTWIRQAPGKGLEWVSYISGSFRYTNYADSVKGRFTISRDNAKNSLYLQMNSLRDEDTAVYFCARYVYQVVAIGDLWGQGTLVTVSS VL: DIQMTQSPSSVSASVGDRVTITCRASQGISSWLAWYQQKPGRAPKLLIFAASSLQSGVPSRFSGSGSGTHFTLTISSLQPEDFATYYCQQAKSFPYTFGQGTKLEIK
2 | 0.029 | AB13-259 (IgG4-2 kappa) (antibody, V domains shown, Human) VH: QVQLVESGGGLVKPGGSLRLSCAASGFTFSDYYMSWIRQAPGKGLEWVSYISDKSRYTKYTDSVRGRFTISRDNAKNSLYLQMNSLRAEDTAVYYCARYLYQVIAIADAWGQGTLVTVSS VL: DIQMTQSPSSVSASVGDRVTITCRASQGISSWLAWFQQKPGKAPKLLIFVASNLESGVPSRFSGSGSGTDFTLTISSLQPEDFATYYCQQAESFPYTFGQGTKLEIK
3 | 0.015 | AB13-259 (IgG1m(zf) kappa) (antibody, V domains shown, Human) VH: QVQLVESGGGLVKPGGSLRLSCAASGFTFSDYYMSWIRQAPGKGLEWVSYISDKSRYTKYTDSVRGRFTISRDNAKNSLYLQMNSLRAEDTAVYYCARYLYQVIAIADAWGQGTLVTVSS VL: DIQMTQSPSSVSASVGDRVTITCRASQGISSWLAWFQQKPGKAPKLLIFVASNLESGVPSRFSGSGSGTDFTLTISSLQPEDFATYYCQQAESFPYTFGQGTKLEIK
4 | 170 | AB04-174 (antibody, V domains shown, Human; IgG1m(zf) kappa) VH: QVQLVESGGGLVKPGGSLRLSCAASGFTFSDYYMTWIRQAPGKGLEWVSYISGSNAYTDYADSVKGRFTISRDNAKNSLYLQMNSLRDEDTAVYFCARYVYQTVAIGDLWGQGTLVTVSS VL: DIQMTQSPSSVSASVGDRVTITCRASQGISSWLAWYQQKPGRAPKLLIFAASSLQSGVPSRFSGSGSGTHFTLTISSLQPEDFATYYCQQAKSFPYTFGQGTKLEIK
5 | 0.26 | AB04-482 (antibody, V domains shown, Human; IgG1m(zf) kappa) VH: not shown VL: DIQMTQSPSSVSASVGDRVTITCRASQGISSWLAWYQQKPGRAPKLLIFAASSLQSGVPSRFSGSGSGTHFTLTISSLQPEDFATYYCQQAKSFPYTFGQGTKLEIK
6 | < 0.001 | AB13-166 (antibody, V domains shown, Human; IgG1m(zf) kappa) VH: QVQLVESGGGLVKPGGSLRLSCAASGFTFSDYYMSWIRQAPGKGLEWVSYISDKSRYTKYTPSVRGRFTISRDNAKNSLYLQMNSLRAEDTAVYYCARYLYQVIAIADAWGQGTLVTVSS VL: DIQMTQSPSSVSASVGDRVTITCRASQGISSWLAWFQQKPGKAPKLLIFVASNLESGVPSRFSGSGSGTDFTLTISSLQPEDFATYYCQQAESFPYTFGQGTKLEIK
7 | 0.9 | AB04-121 (antibody, V domains shown, Human; IgG1m(zf) kappa) VH: QVQLVESGGGLVKPGGSLRLSCAASGFTFSDYYMTWIRQAPGKGLEWVSYISGSNAYTDYADSVKGRFTISRDNAKNSLYLQMNSLRDEDTAVYFCARYVYQVVAIGDYWGQGTLVTVSS VL: DIQMTQSPSSVSASVGDRVTITCRASQGISSWLAWYQQKPGRAPKLLIFAASSLQSGVPSRFSGSGSGTHFTLTISSLQPEDFATYYCQQAKSFPYTFGQGTKLEIK
8 | 0.026 | AB04-380 (antibody, V domains shown, Human; IgG1m(zf) kappa) VH: QVQLVESGGGLVKPGGSLRLSCAASGFTFSDYYMTWIRQAPGKGLEWVSYISGSFRYTNYAPSVKGRFTISRDNAKNSLYLQMNSLRDEDTAVYFCARYVYQVVAIGDLWGQGTLVTVSS VL: DIQMTQSPSSVSASVGDRVTITCRASQGISSWLAWYQQKPGRAPKLLIFAASSLQSGVPSRFSGSGSGTHFTLTISSLQPEDFATYYCQQAESFPYTFGQGTKLEIK
9 | 0.024 | AB13-147 (antibody, V domains shown, Human; IgG1m(zf) kappa) VH: QVQLVESGGGLVKPGGSLRLSCAASGFTFSDYYMSWIRQAPGKGLEWVSYISDSSRYTKYTDSVRGRFTISRDNAKNSLYLQMNSLRAEDTAVYYCARYLYQVIAIAKSWGQGTLVTVSS VL: DIQMTQSPSSVSASVGDRVTITCRASQGISSWLAWFQQKPGKAPKLLIFVASNLESGVPSRFSGSGSGTDFTLTISSLQPEDFATYYCQQANSFPYTFGQGTKLEIK
10 | 0.025 | AB04-151 (antibody, V domains shown, Human; IgG1m(zf) kappa) VH: QVQLVESGGGLVKPGGSLRLSCAASGFTFSDYYMTWIRQAPGKGLEWVSYISGSFRYTNYADSVKGRFTISRDNAKNSLYLQMNSLRDEDTAVYFCARYVYQVVAIGDYWGQGTLVTVSS VL: DIQMTQSPSSVSASVGDRVTITCRASQGISSWLAWYQQKPGRAPKLLIFAASSLQSGVPSRFSGSGSGTHFTLTISSLQPEDFATYYCQQAKSFPYTFGQGTKLEIK
11 | < 0.05 | AB13-227 (antibody, V domains shown, Human; IgG1m(zf) kappa) VH: QVQLVESGGGLVKPGGSLRLSCAASGFTFSDYYMSWIRQAPGKGLEWVSYISDSSRYTKYTDSVRGRFTISRDNAKNSLYLQMNSLRAEDTAVYYCARYLYQVIAIAKSWGQGTLVTVSS VL: DIQMTQSPSSVSASVGDRVTITCRASQGISSWLAWFQQKPGKAPKLLIFVASNLESGVPSRFSGSGSGTDFTLTISSLQPEDFATYYCQQAESFPYTFGQGTKLEIK
12 | 1.9 | AB04-411 (antibody, V domains shown, Human; IgG1m(zf) kappa) VH: QVQLVESGGGLVKPGGSLRLSCAASGFTFSDYYMTWIRQAPGKGLEWVSYISGSNAYTDYADSVKGRFTISRDNAKNSLYLQMNSLRDEDTAVYFCARYVYQVVAVGDLWGQGTLVTVSS VL: DIQMTQSPSSVSASVGDRVTITCRASQGISSWLAWYQQKPGRAPKLLIFAASSLQSGVPSRFSGSGSGTHFTLTISSLQPEDFATYYCQQAKSFPYTFGQGTKLEIK
13 | 0.46 | AB04-276 (antibody, V domains shown, Human; IgG1m(zf) kappa) VH: QVQLVESGGGLVKPGGSLRLSCAASGFTFSDYYMTWIRQAPGKGLEWVSYISGSFAYTDYADSVKGRFTISRDNAKNSLYLQMNSLRDEDTAVYFCARYVYQVVAIGDYWGQGTLVTVSS VL: DIQMTQSPSSVSASVGDRVTITCRASQGISSWLAWYQQKPGRAPKLLIFAASSLQSGVPSRFSGSGSGTHFTLTISSLQPEDFATYYCQQAKSFPYTFGQGTKLEIK
14 | 0.185 | AB04-365 (antibody, V domains shown, Human; IgG1m(zf) kappa) VH: QVQLVESGGGLVKPGGSLRLSCAASGFTFSDYYMTWIRQAPGKGLEWVSYISGSFAYTNYADSVKGRFTISRDNAKNSLYLQMNSLRDEDTAVYFCARYVYQVVAIGDYWGQGTLVTVSS VL: DIQMTQSPSSVSASVGDRVTITCRASQGISSWLAWYQQKPGRAPKLLIFAASSLQSGVPSRFSGSGSGTHFTLTISSLQPEDFATYYCQQAKSFPYTFGQGTKLEIK
15 | 0.265 | AB04-483 (antibody, V domains shown, Human; IgG1m(zf) kappa) VH: QVQLVESGGGLVKPGGSLRLSCAASGFTFSDYYMTWIRQAPGKGLEWVSYISGSNAYTNYADSVKGRFTISRDNAKNSLYLQMNSLRDEDTAVYFCARYVYQVVAIGDYWGQGTLVTVSS VL: DIQMTQSPSSVSASVGDRVTITCRASQGISSWLAWYQQKPGRAPKLLIFAASSLQSGVPSRFSGSGSGTHFTLTISSLQPEDFATYYCQQAKSFPYTFGQGTKLEIK
16 | 12.2 | KL31-600 (antibody, human IgG1, V domains shown) VH: QVQLQQSGAELVRPGSSVRMSCKAVGYTFTDYCIGWIKQRPGHGLEWIGDICPGDAYTNDNEKFKDKATLTADTSSTTAYMQLSSLTSEDSAIYYCARGEEQVGLRNAMDYWGQGTSVTVSS VL: DIVLTQSPASLAVSLGQRATISCQSQSVSTSTYNYMHWYQQKPGQPPKLLIKYASNLESGVPARFSGSGSGTDFTLNIHPVEEEDTATYYCQHSWEIPWTFGGGTKLEIK
17 | 277 | KL31-313 (antibody, IgG2a, V domains shown, Mouse; IgG2a kappa) VH: QVQLQQSGAELVRPGSSVRMSCKAVGYTFTDYCIGWIKQRPGHGLEWIGDICPGDAYTNDNEKFKDKATLTADTSSTTAYMQLSSLTSEDSAIYYCARGEEQVGLRNAMDYWGQGTSVTVSS VL: DIVLTQSPASLAVSLGQRATISCQSQSVSTSTYNYMHWYQQKPGQPPKLLIKYASNLESGVPARFSGSGSGTDFTLNIHPVEEEDTATYYCQHSWEIPWTFGGGTKLEIK
18 | 6.79 | KL31-275 (antibody, IgG1, V domains shown, Mouse; IgG1 kappa) VH: QVQLQQSGAELVRPGSSVRMSCKAVGYTFTDYCIGWIKQRPGHGLEWIGDICPGDAYTNDNEKFKDKATLTADTSSTTAYMQLSSLTSEDSAIYYCARGEEQVGLRNAMDYWGQGTSVTVSS VL: DIVLTQSPASLAVSLGQRATISCQSQSVSTSTYNYMHWYQQKPGQPPKLLIKYASNLESGVPARFSGSGSGTDFTLNIHPVEEEDTATYYCQHSWEIPWTFGGGTKLEIK
19 | 0.67 | KL31-261 (antibody, V domains shown, Humanized; IgG1m(zf) kappa) VH: QVQLVQSGAEVKKPGASVKVSCKASGYTFTDYCIGWIRQAPGQGLEWMGDICPGDVYTNDNEKFKDRATMTADTSTSTAYMELSSLRSEDTAVYYCARGEEQLGLRNAMDYWGQGTLVTVSS VL: DIVMTQSPDSLAVSLGERATINCQSQSVSTSTYNYMHWYQQKPGQPPKLLIKYASNLESGVPDRFSGSGSGTDFTLTISSLQAEDVATYYCQHSWEIPWTFGGGTKVEIK
20 | 0.25 | KL31-131 (antibody, V domains shown, Humanized; IgG1m(zf) kappa) VH: QVQLVQSGAEVKKPGASVKVSCKASGYTFTDYCIGWIRQAPGQGLEWMGDICPGDTYTNDNEKFKDRATMTADTSTSTAYMELSSLRSEDTAVYYCARGEEQLGLRNAMDYWGQGTLVTVSS VL: EIVLTQSPATLSLSPGERATLSCQSQSVSTSTYNYMHWYQQKPGQAPRLLIKYASNLESGIPDRFSGSGSGTDFTLTISRLEPEDFATYYCQHSWEIPWTFGGGTKVEIK
21 | 32.5 | KL31-523 (antibody, V domains shown, Humanized; IgG1m(zf) kappa) VH: QVQLVQSGAEVKKPGASVKVSCKASGYTFTDYCIGWIRQAPGQGLEWMGDICPGDAYTNDNEKFKDRATMTADTSTSTAYMELSSLRSEDTAVYYCARGEEQVGLRNAMDYWGQGTSVTVSS VL: DIVMTQSPDSLAVSLGERATINCQSQSVSTSTYNYMHWYQQKPGQPPKLLIKYASNLESGVPDRFSGSGSGTDFTLTISSLQAEDVATYYCQHSWEIPWTFGGGTKLEIK
